This is an account of results in patent US20250009876A1 (H LUNDBECK A S, published 2025).

In assay [1] the target is T1, PACAP38 (Pituitary Adenylate Cyclase-Activating Polypeptide, 38 amino acids) (human, not fully specified; the C-terminal lysine is amidated).
T1 peptide: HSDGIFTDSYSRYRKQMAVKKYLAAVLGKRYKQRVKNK
Put plainly: cell-based or functional assay.

The target in assay [2] is T2, PACAP27 (Pituitary Adenylate Cyclase-Activating Polypeptide, 27 amino acids) (human, the C-terminal leucine is amidated).
T2 peptide: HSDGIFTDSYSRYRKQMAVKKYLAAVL
Put plainly: cell-based or functional assay.

Assay [3] concerns the target T1, PACAP38 (Pituitary Adenylate …). The assay is described as follows: cell-based or functional assay.
The target is the same in assay [4]. The assay is described as follows: cell-based or functional assay.
For assay [5] the target is unchanged. Put plainly: HTRF binding assay, antibody dilution series on 35 nM biotinylated PACAP38. The procedure: In parallel, 10 μl of an antibody dilution series (highest final concentration of 100 nM) were incubated with 10 μl of N-terminal or C-terminal biotinylated PACAP38 (35 nM final) alone, or in combination with either PACAP27 (350 nM final) or VIP (350 nM final), i.e., 10× PACAP27 or 10× VIP, respectively, in a HTRF plate. 20 μl of Eu³⁺ cryptate labeled anti-hu Fc donor and 20 μl of d2-labeled streptavidin acceptor were added to each well and incubated for 1 hour at room temperature. Fluorescence was measured at 620 and 665 nm with a delay of 300 usec.
EC₅₀ values, i.e. the concentration of an antibody that yields a response halfway between the baseline and the maximum value within a specified time period, were computed for each antibody based upon their binding curves and are shown in Table 1 below. […] A humanized form of antibody Ab1 identified by an appended “.H”, i.e., Ab1.H also bound PACAP38 with high affinity.
In general terms: TR-FRET usually uses a lanthanide donor and a delayed reading to cut background.

For assay [6] the target is unchanged. Put plainly: SPR (ProteOn XPR36), antibody amine-coupled, peptide analyte, 1:1 Langmuir fit. The procedure: (§1) Binding affinities of monoclonal antibodies for human PACAP were estimated using SPR on the PROTEON™ XPR36 (Bio-Rad, Hercules, CA). Antibody was immobilized to the surface of general amine coupling (“GLC” or “GLM”) Chips (Bio-Rad, Hercules, CA). […] Antigen (ranging from 1.23 nM to 100 nM) was typically run sequentially with association times of 2-4 minutes and dissociation times of 3-120 minutes grouped with the PROTEON™ Manager Software (v3.1.0.6 (Bio-Rad, Hercules, CA)) and fitted using a 1:1 Langmuir binding model. Surfaces were regenerated between analyte queries using 0.85% Phosphoric Acid.

Assay [7] deals with T2, PACAP27 (Pituitary Adenylate …). The description is as above. The procedure:
as §1

The target in assay [8] is T1, PACAP38 (Pituitary Adenylate …). The assay is described as follows: inhibition of 30 nM biotinylated PACAP38 binding to PAC1-R-expressing PC-12 cells, Eu-streptavidin TRF. The procedure: To identify antibodies that block PACAP38 binding to PAC1-R-expressing cells, adherent PC-12 cells (ATCC, Manassas, VA) expressing PAC1-R were used in a Europium-based PAC1-R-expressing cells binding assay. Antibody solutions were incubated with N-terminal biotinylated PACAP38 at 10× the final concentration (100 nM or 30 nM) for 1 hr, then added to PC-12 cells that were plated 24 hrs prior in black clear bottom 96 well plates (COSTAR™, Corning Incorporated, Corning, NY) and further incubated for 1 hr at room temperature. After three washes, the cells were incubated with 20 μl Europium-labeled streptavidin (PerkinElmer, Waltham, MA) for 1 hr at room temperature. Cells were washed three times, then 20 μl DELFIA® Enhancement solution (PerkinElmer, Waltham, MA) was added to each well and incubated for 15 minutes with gentle shaking. Plates were read (Time Resolved Fluorescence (“TRF”)) on SPECTRAMAX® (Molecular Devices, Sunnyvale, CA) plate reader.
FIGS. 14A-14H are representative of the inhibition curves obtained by this method (results are shown for Ab10, Ab20, Ab21, Ab1.H, Ab10.H, Ab21.H, Ab22, and Ab23, respectively) wherein the PAC1-R expressing cells were PC-12 cells.

Assay [9] concerns the target T3, VIP (Vasoactive Intestinal Peptide) (human).
T3 construct: also called human VIP
T3 peptide: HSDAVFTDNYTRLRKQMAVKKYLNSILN
The assay is described as follows: SPR (ProteOn XPR36), antibody amine-coupled, peptide analyte, 1:1 Langmuir fit; SPR, direct binding of VIP to the antibody; weak, KD 3.1E-07 M.

The target in assay [10] is T1, PACAP38 (Pituitary Adenylate …). Put plainly: cell surface binding assay (DELFIA TRF): antibody pre-incubated with PACAP38, added to PAC1-R-expressing PC-12 cells, detected with Eu anti-human IgG; the antibody is held on the cells through cell-bound PACAP38.
The target is the same in assay [11]. The assay is described as follows: cell-based or functional assay.
Assay [12] concerns the target T2, PACAP27 (Pituitary Adenylate …). The assay is described as follows: cell-based or functional assay.
For assay [13], the target named is T1, PACAP38 (Pituitary Adenylate …). The assay is described as follows: SPR (ProteOn XPR36), antibody amine-coupled, peptide analyte, 1:1 Langmuir fit. The procedure:
(§2) Binding affinities of monoclonal antibodies for human PACAP were estimated using SPR on the PROTEON™ XPR36 (Bio-Rad, Hercules, CA). Antibody was immobilized to the surface of general amine coupling (“GLC″ or “GLM”) Chips (Bio-Rad, Hercules, CA). […] Antigen (ranging from 1.23 nM to 100 nM) was typically run sequentially with association times of 2-4 minutes and dissociation times of 3-120 minutes grouped with the PROTEON™ Manager Software (v3.1.0.6 (Bio-Rad, Hercules, CA)) and fitted using a 1:1 Langmuir binding model. Surfaces were regenerated between analyte queries using 0.85% Phosphoric Acid, 0.5% SDS, and 0.1N NaOH.

The target of assay [14] is T2, PACAP27 (Pituitary Adenylate …). The assay is described as above. The procedure: as §2
Assay [15] deals with T3, VIP (Vasoactive Intestinal Peptide). The assay is described as above.
The target of assay [16] is T1, PACAP38 (Pituitary Adenylate …). The assay is described as follows: cell surface binding assay (DELFIA TRF): antibody pre-incubated with PACAP38, added to PAC1-R-expressing PC-12 cells, detected with Eu anti-human IgG; the antibody is held on the cells through cell-bound PACAP38. The method, then:
Cells were initially seeded at 1×10⁵ cells/well in a solution of complete RPMI (“cRPMI”: RPMI medium supplemented with 10% sterile heat-inactivated FBS and 1% sterile antibiotic/antimycotic)+10% FBS, and the plates were allowed to incubate overnight at 37° C. On the day of the binding assay, antibodies at an initial concentration of 15 μg/ml were diluted at a 1:3 ratio in DELFIA® binding buffer (50 mM Tris, 150 mM NaCl, 0.1% azide, 2% horse serum) (Perkin-Elmer, Waltham, MA) to a total volume of 60 μL in a separate 96 well round bottom plate. PACAP38 was prepared for the binding assay by diluting it in DELFIA® binding buffer to a concentration of 200 nM, and then 60 μl of the diluted PACAP38 was added to each of the antibody-containing wells to form antibody: antigen complexes. Following addition of PACAP38, the antibody: antigen complexes were incubated at room temperature on a shaker for 1 hour. […]
DELFIA® Europium labeled anti-human IgG detection reagent (Cat #1244-330, Perkin-Elmer, Waltham, MA) was diluted to a concentration of 300 ng/ml in DELFIA® Binding Buffer. […] The plates were then read (TRF, excitation 330 nm, emission 620 nm) on a SPECTRAMAX® (Molecular Devices, Sunnyvale, CA) plate reader.

In general, EC50 refers to the concentration giving half of the maximal effect. As usually defined, the Kd is the concentration at which binding is half-saturated. For orientation: koff means the rate constant with which the complex falls apart. Low values mean slow dissociation, high ones fast dissociation. The term kon denotes a measure of how fast the partners come together. As a reminder, the IC50 is the point on the concentration scale where inhibition reaches its midpoint. One may read the EC50 (read off the curve) as the concentration giving half of the maximal effect. Read a low EC50 (read off the curve) as greater potency.

Like-named read-outs stand apart in the source and are kept apart here.

B1: Ab21 (antibody, human IgG1, kappa, N297A, V domains shown)
VH: QSVEESGGRLVTPGTPLTLTCTVSGIDLSSYYMTWVRQAPGKGLEWVGFIDAGGSAYYATWAKGRFTISKASTTVDLKITSPTTEDTATYFCARDLDLWGPGTLVTVSS
VL: AAVLTQTPSPVSAAVGGTVSISCKSSESVYGDYLAWFQQKPGQPPKQLIYDASTLASGVPSRFKGSGSGTQFTLTISGVQCDDAATYYCAGGYVSAGVAFGGGTEVVVKR
notes: Full-length anti-PACAP antibody; rabbit/human chimeric
Consider B1, for which the “Inhibition of 0.1 nM PACAP38-induced PAC1-R mediated cAMP increase IC50 (pM)” value in [1] worked out at 239 pM. Also, in [2], the “Inhibition of 0.1 nM PACAP27-induced PAC1-R mediated cAMP increase IC50 (pM)” value stood at 140 pM. For the same molecule, the “Inhibition of 5 nM PACAP38-induced human VPAC1-R mediated cAMP increase IC50 (pM)” value in [3] is 2850 pM. In assay [4], the “Inhibition of 1 nM PACAP38-induced human VPAC2-R mediated cAMP increase IC50 (pM)” value is 5220 pM. Further, the half-maximal effective concentration (EC50) in [5] is 0.84 nM. Besides, in [6], the Kd was not above 0.027 nM, the koff was not above 1e-05 s⁻¹ and the kon was 370000 M⁻¹ s⁻¹. In assay [7], this molecule showed a Kd not above 0.013 nM, a koff not above 1e-05 s⁻¹ and a kon of 790000 M⁻¹ s⁻¹. In assay [8], this molecule gave an IC50 of 20.3 nM. In assay [9], this molecule displayed a Kd of 310 nM, a koff of 0.00054 s⁻¹ and a kon of 1700 M⁻¹ s⁻¹.

B2: Ab1.H (antibody, V domains shown)
VH: EVQLVESGGGLVQPGGSLRLSCAASGFTVSSAVMNWVRQAPGKGLEWIGSIVASGTTYYASSANGRFTISRDNSKNTLYLQMNSLRAEDTAVYYCARGGGEFFIWGQGTLVTVSS
VL: DIQMTQSPSTLSASVGDRVTITCQSSESVYSNYLSWYQQKPGKAPKFLIYQASNLASGVPSRFSGSGSGTEFTLTISSLQPDDFATYYCAGGYSENIVGFGGGTKVEIKR
With B2, in assay [6], the affinity, expressed as Kd, was 0.021 nM and the koff was found to be 1e-05 s⁻¹. In assay [7], this molecule registered a Kd of 0.013 nM and a koff of 1e-05 s⁻¹. For the same molecule, the “EC50 (read off the curve)” value in [10] is approximately 2 nM.

B3: Ab21.H2 (antibody, human IgG1, kappa, N297A)
heavy: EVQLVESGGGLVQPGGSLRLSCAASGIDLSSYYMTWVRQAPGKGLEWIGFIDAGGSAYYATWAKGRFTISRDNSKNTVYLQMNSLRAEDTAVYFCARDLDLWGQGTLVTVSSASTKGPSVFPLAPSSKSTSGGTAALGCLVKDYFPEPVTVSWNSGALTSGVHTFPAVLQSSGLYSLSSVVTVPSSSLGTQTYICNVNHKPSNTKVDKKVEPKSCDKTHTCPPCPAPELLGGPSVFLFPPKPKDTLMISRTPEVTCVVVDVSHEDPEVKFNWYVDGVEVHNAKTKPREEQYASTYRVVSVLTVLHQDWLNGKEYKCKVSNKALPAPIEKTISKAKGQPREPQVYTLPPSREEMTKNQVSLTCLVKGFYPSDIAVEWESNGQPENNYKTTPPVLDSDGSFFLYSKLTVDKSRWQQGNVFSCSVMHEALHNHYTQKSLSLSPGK
light: AVLTQSPSTLSASVGDRVTITCKSSESVYGDYLAWFQQKPGKAPKQLIYDASTLASGVPSRFSGSGSGTEFTLTISSLQPDDFATYYCAGGYVSAGVAFGGGTKVEIKRTVAAPSVFIFPPSDEQLKSGTASVVCLLNNFYPREAKVQWKVDNALQSGNSQESVTEQDSKDSTYSLSSTLTLSKADYEKHKVYACEVTHQGLSSPVTKSFNRGEC
notes: Full-length humanized variant of Ab21
For B3, in assay [11], the “Inhibition of 0.1 nM PACAP38-induced PAC1-R mediated cAMP increase IC50 (pM)” value is 28.5 pM. Further, in assay [12], the “Inhibition of 1 nM PACAP27-induced PAC1-R mediated cAMP increase IC50 (pM)” value came to 274 pM. The “Inhibition of 5 nM PACAP38-induced human VPAC1-R mediated cAMP increase IC50 (pM)” value in assay [3] turned out to be 2480 pM. For the same molecule, in [4], the “Inhibition of 1 nM PACAP38-induced human VPAC2-R mediated cAMP increase IC50 (pM)” value was found to be 1060 pM. In assay [13], this molecule displayed a Kd not above 0.0171 nM, a koff not above 1e-05 s⁻¹ and a kon of 586000 M⁻¹ s⁻¹. Also, in assay [14], the Kd was not above 0.0233 nM, the koff is not above 1e-05 s⁻¹ and the kon was determined as 430000 M⁻¹ s⁻¹. In assay [15], this molecule had a dissociation constant (Kd) of 225 nM, a koff of 0.011 s⁻¹ and a kon of 48800 M⁻¹ s⁻¹. In [16], the “EC50 (read off the curve)” value was approximately 7 nM.
